Data set [1] concerns the target T1, POLγB-VV (UniProt Q9UHN1 26-485, V119A;V125A).
T1 sequence: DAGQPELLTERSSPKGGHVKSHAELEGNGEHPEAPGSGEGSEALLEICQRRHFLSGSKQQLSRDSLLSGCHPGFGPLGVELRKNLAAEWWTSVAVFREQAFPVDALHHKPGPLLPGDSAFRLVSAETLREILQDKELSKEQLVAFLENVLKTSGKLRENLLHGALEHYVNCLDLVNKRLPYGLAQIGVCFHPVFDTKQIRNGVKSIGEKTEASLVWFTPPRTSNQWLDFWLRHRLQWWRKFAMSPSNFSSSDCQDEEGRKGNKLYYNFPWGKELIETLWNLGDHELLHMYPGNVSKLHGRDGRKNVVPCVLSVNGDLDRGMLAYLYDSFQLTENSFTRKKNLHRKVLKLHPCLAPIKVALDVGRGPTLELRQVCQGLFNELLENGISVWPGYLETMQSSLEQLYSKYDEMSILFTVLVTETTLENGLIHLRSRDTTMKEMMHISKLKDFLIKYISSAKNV
Description: EMSA. In general terms: Mobility shift assays separate free from complexed probe on a gel.

For data set [2], the target named is T2, POLγB-RKK (UniProt Q9UHN1 26-485, R363A;K364A;K365A).
T2 sequence: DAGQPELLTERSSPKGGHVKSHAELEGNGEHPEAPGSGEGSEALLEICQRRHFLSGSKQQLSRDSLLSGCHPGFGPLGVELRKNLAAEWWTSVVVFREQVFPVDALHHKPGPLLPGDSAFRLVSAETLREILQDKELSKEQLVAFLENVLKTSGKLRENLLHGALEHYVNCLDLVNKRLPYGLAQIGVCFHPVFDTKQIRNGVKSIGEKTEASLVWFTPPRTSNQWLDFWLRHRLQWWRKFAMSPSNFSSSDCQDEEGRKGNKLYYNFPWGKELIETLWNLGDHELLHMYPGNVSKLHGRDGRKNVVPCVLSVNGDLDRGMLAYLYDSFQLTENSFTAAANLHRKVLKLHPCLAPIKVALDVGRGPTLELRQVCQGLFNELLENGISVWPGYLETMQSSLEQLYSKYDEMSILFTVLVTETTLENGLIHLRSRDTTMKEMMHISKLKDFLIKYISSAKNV
Description: EMSA.

Data set [3] concerns the target T3, POLγB wild type (accessory subunit of DNA polymerase γ) (UniProt Q9UHN1 26-485).
T3 sequence: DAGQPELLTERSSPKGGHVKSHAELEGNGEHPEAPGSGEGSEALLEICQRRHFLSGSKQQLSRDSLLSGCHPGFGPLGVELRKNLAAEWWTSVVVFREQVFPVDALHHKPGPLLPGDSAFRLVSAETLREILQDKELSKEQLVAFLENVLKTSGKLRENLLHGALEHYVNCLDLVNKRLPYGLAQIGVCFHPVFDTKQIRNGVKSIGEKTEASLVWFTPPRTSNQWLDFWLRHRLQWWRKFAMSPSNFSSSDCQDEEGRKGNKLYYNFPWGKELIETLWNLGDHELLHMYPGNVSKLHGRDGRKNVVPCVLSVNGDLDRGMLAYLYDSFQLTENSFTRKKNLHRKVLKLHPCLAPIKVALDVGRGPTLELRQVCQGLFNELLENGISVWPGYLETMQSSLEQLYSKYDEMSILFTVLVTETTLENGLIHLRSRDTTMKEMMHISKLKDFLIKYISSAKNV
Description: EMSA.

Data set [4] deals with T4, POLγB-RK (UniProt Q9UHN1 26-485, R328A;K329A).
T4 sequence: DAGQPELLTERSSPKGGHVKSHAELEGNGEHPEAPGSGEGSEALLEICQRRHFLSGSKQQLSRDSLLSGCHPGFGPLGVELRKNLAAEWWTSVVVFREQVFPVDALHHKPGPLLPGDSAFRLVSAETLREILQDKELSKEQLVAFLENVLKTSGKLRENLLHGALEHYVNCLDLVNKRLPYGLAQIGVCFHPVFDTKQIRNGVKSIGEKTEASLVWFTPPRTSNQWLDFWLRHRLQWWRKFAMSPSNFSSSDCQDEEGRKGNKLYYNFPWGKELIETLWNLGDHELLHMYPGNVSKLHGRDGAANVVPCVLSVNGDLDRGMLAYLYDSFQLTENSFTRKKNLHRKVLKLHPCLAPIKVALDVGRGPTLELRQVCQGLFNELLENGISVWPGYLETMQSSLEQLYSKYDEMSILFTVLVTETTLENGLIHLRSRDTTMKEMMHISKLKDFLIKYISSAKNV
Description: EMSA.

Data set [5] addresses POLγA (catalytic subunit of DNA polymerase γ);POLγB-VV (Homo sapiens?;Homo sapiens?, UniProt P54098;Q9UHN1 26-1239;26-485, |V119A;V125A). Description: EMSA supershift.
Data set [6] has as its target POLγA (catalytic subunit of DNA polymerase γ) (UniProt P54098 26-1239). Description: EMSA.
Data set [7] addresses POLγA (catalytic subunit of DNA polymerase γ);POLγB-RKK (Homo sapiens?;Homo sapiens?, UniProt P54098;Q9UHN1 26-1239;26-485, |R363A;K364A;K365A). Description: EMSA, competitor challenge.
The target in data set [8] is POLγA (catalytic subunit of DNA polymerase γ);POLγB-RK (Homo sapiens?;Homo sapiens?, UniProt P54098;Q9UHN1 26-1239;26-485, |R328A;K329A). Description: EMSA, competitor challenge.
Chain of POLγA (catalytic subunit of DNA polymerase γ);POLγB-RK (P54098 26-1239, stated change not applied, one chain of several): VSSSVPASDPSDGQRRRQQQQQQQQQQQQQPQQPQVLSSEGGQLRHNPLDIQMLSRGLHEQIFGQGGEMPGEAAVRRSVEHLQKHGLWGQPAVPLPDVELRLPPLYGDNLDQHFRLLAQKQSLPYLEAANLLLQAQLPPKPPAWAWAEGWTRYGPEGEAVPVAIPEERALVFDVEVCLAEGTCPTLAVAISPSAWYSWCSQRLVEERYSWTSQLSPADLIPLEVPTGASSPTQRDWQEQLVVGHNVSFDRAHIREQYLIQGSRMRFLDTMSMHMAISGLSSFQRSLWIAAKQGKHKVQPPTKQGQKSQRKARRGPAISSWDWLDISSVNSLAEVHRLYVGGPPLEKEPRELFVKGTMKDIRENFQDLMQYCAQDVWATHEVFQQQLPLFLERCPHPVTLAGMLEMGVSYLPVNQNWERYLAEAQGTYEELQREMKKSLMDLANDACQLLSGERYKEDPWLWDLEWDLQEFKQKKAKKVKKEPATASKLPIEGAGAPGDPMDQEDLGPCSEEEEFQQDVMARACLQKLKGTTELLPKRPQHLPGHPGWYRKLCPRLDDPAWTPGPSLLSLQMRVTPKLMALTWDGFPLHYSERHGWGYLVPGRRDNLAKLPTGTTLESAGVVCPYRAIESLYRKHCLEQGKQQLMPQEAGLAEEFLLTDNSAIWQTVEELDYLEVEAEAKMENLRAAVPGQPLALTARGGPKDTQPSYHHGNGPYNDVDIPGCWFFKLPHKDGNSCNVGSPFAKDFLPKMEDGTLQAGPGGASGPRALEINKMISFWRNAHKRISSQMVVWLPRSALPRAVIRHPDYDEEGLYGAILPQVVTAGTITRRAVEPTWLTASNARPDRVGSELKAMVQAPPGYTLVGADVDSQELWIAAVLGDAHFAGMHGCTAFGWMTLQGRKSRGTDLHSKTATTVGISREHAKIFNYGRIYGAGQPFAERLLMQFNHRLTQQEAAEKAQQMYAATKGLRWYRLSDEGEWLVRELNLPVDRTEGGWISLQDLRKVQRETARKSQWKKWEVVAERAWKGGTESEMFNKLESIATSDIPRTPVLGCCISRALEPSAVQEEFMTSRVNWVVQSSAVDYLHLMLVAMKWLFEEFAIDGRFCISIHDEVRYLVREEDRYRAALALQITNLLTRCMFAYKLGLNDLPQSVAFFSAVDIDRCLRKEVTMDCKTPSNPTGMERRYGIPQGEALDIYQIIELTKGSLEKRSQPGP

Chain of POLγA (catalytic subunit of DNA polymerase γ);POLγB-RKK (P54098 26-1239, stated change not applied, one chain of several): as above
Chain of POLγA (catalytic subunit of DNA polymerase γ);POLγB-VV (P54098 26-1239, stated change not applied, one chain of several): as above
Chain of POLγA (catalytic subunit of DNA polymerase γ) (P54098 26-1239): as the sequence (P54098 26-1239, stated change not applied, one chain of several) above

B1: 50-bp dsDNA probe (dsDNA)
DNA 1: GGCGTATATCCAAATTAAAAGCATTTTTGATTGCATATATATCATCAGCT
DNA 2: AGCTGATGATATATATGCAATCAAAAATGCTTTTAATTTGGATATACGCC
On to B1, for which the binding result is “binds” in data set [1], “no binding” in data set [2], “binds” in data set [3] and “no binding” in data set [4].

B2: primed DNA template (35-mer/20-mer) (mixed)
DNA 1: TTTTTTTTTTATCCGGGCTCCTCTAGACTCGACCG
DNA 2: CGGTCGAGTCTAGAGGAGCC
In the case of B2, the binding result in data set [5], in data set [6], in data set [7] and in data set [8] was “binds” each time.

The record behind these values is paper PMC1807957.
